Results reported in paper PMC3743062 (Scientific Reports, 2013).

Molecular target: Calmodulin (CaM), wild type (UniProt P0DP23 1-149)
Experiment: crystal structure

binding result: binds
Binder: EEVSAVVLQRAYRGHLARRGFI (domain or fragment) [NaV1.6 IQ motif (1893-1914), the part of the fusion CaM-(Gly)5-NaV1.6 IQ]
